Assay results taken from article PMC8175363.

Molecular target: unspliced Pyrococcus horikoshii PolII intein fusion protein NIHPho (N-extein M-H-A-A-K-R-N, 166-residue intein, C-extein C-D-G-D-E-D-His6) (Pyrococcus horikoshii) (UniProt O57861)
Assay: crystal structure; sitting drop vapour diffusion; protein about 3 mg/ml in 20 mM Tris pH 8.0, 100 mM NaCl; reservoir 0.1 M Tris HCl pH 8.5, 1.8 M ammonium sulfate, 0.1 M sodium chloride, 1% glycerol; data at 100 K; phased by SAD with the Se-Met derivative

Substance “unspliced Pyrococcus horikoshii PolII intein fusion protein NIHPho (N-extein M-H-A-A-K-R-N, 166-residue intein, C-extein C-D-G-D-E-D-His6) (from UniProt O57861 945-1123) (domain or fragment)” has a stoichiometry N of 2.
